From US20050123920A1

Key:
HA-VHL = HA-VHL (UniProt P40337); assay: co-immunoprecipitation of cotransfected proteins
[1] = target: human Jade-1 protein (human); assay: estimate based upon co-localization data (immunofluorescence)
[2] = target: human Jade-1 protein (human); assay: cell-based or functional assay
[3] = target: FL-Jade-1 (tagged library clone, transfected) (human); assay: co-immunoprecipitation of cotransfected proteins

Chain of UniProt P40337 (P40337 whole entry): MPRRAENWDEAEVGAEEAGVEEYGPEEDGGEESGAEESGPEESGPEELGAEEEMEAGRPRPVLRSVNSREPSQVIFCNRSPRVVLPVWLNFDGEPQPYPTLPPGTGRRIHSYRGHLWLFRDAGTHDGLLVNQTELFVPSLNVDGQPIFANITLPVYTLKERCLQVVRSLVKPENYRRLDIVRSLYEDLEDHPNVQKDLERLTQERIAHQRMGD

“FL-Jade-1 (tagged library clone, transfected)” gave a percent of Jade-1 in the cell lysate immunoprecipitable with VHL (HA-VHL) of 30 to 40%.
“von Hippel-Lindau (VHL) protein, wild-type human (from UniProt P40337 1-213)” gave a percent of VHL that associates with Jade-1 [1] of under 10%, an endogenous Jade-1 protein half-life in VHL-plus 786-O renal cancer cells (~40 minutes in VHL-minus cells), metabolic labeling [2] of 1 h and a half-life of Jade-1 transiently transfected with VHL (data not shown) [2] of 1.5 h. For the same substance, the increase of Jade-1 protein half-life with cotransfected VHL in 293 cells, pulse-chase [2] was 2 fold.
Substance HA-VHL (from UniProt P40337 1-213) has a percent of VHL in the cell lysate immunoprecipitable with Jade-1 (vice-versa) [3] of 30 to 40%.
